The text below walks through data of patent US20230002496A1 (STAIDSON BEIJING BIOPHARMACEUTICALS, published 2023).

T1: human GM-CSFRα, full length on cells (human, UniProt P15509 23-400)
T1 sequence: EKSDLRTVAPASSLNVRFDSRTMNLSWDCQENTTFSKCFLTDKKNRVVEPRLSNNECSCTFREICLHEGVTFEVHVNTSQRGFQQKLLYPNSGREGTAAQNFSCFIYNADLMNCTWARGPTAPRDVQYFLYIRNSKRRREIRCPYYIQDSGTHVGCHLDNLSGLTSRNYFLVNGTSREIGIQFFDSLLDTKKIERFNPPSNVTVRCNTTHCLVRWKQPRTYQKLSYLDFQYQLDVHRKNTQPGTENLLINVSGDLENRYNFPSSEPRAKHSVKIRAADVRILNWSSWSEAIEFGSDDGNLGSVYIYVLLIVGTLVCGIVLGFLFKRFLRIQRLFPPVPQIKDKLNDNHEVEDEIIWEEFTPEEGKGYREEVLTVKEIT

B1: E35-scFv LS52P (scFv, V domains shown)
VH: QMQLVQSGAEVKKPGASVKVSCKVSGYTLTELSIHWVRQAPGKGLEWMGGFDPEDGETIYAQKFQGRVTMTGDTSTDTAYLELSSLRSEDTALYYCATGRYTSLATTYGFDYWGQGTLVTVSS
VL: EIVMTQSPATLSLSPGERATLSCRASQSVSSYLAWYQQKPGQAPRLLIYGAPSRATGIPDRFSGSGSGTDFTLTISRLEPEDFAVYYCQQYDNWPYTFGQGTKLEIK
B2: E35-scFv LG50Q (scFv, V domains shown)
VH: B1 VH
VL: B1 VL with G50Q, P52S
B3: E35-scFv LG50D (scFv, V domains shown)
VH: B1 VH
VL: B1 VL with G50D, P52S
B4: E35-scFv LD92A (scFv, V domains shown)
VH: B1 VH
VL: B1 VL with P52S, D92A
B5: E35-scFv LD92Q (scFv, V domains shown)
VH: B1 VH
VL: B1 VL with P52S, D92Q
B6: E35-scFv LA51K (scFv, V domains shown)
VH: B1 VH
VL: B1 VL with A51K, P52S
B7: E35-scFv LG50A (scFv, V domains shown)
VH: B1 VH
VL: B1 VL with G50A, P52S
B8: E35-scFv LS52D (scFv, V domains shown)
VH: B1 VH
VL: B1 VL with P52D
B9: E35-scFv LD92L (scFv, V domains shown)
VH: B1 VH
VL: B1 VL with P52S, D92L
B10: E35-scFv LG50Y (scFv, V domains shown)
VH: B1 VH
VL: B1 VL with G50Y, P52S
B11: E35-scFv LA51V (scFv, V domains shown)
VH: B1 VH
VL: B1 VL with A51V, P52S
B12: E35-scFv LG50N (scFv, V domains shown)
VH: B1 VH
VL: B1 VL with G50N, P52S
B13: E35-scFv LA51Q (scFv, V domains shown)
VH: B1 VH
VL: B1 VL with A51Q, P52S
B14: E35-scFv LG50T (scFv, V domains shown)
VH: B1 VH
VL: B1 VL with G50T, P52S
B15: E35-scFv LA51H (scFv, V domains shown)
VH: B1 VH
VL: B1 VL with A51H, P52S
B16: E35-scFv LD92W (scFv, V domains shown)
VH: B1 VH
VL: B1 VL with P52S, D92W
B17: E35-scFv LD92V (scFv, V domains shown)
VH: B1 VH
VL: B1 VL with P52S, D92V
B18: E35-scFv LG50H (scFv, V domains shown)
VH: B1 VH
VL: B1 VL with G50H, P52S
B19: E35-scFv LG50I (scFv, V domains shown)
VH: B1 VH
VL: B1 VL with G50I, P52S
B20: E35-scFv LD92M (scFv, V domains shown)
VH: B1 VH
VL: B1 VL with P52S, D92M
B21: E35-scFv LA51E (scFv, V domains shown)
VH: B1 VH
VL: B1 VL with A51E, P52S
B22: E35-scFv LA51P (scFv, V domains shown)
VH: B1 VH
VL: B1 VL with A51P, P52S
B23: E35-scFv LD92R (scFv, V domains shown)
VH: B1 VH
VL: B1 VL with P52S, D92R
B24: E35-scFv LA51M (scFv, V domains shown)
VH: B1 VH
VL: B1 VL with A51M, P52S
B25: E35-scFv LG50C (scFv, V domains shown)
VH: B1 VH
VL: B1 VL with G50C, P52S
B26: E35-scFv LG50V (scFv, V domains shown)
VH: B1 VH
VL: B1 VL with G50V, P52S
B27: E35-scFv LA51S (scFv, V domains shown)
VH: B1 VH
VL: B1 VL with A51S, P52S
B28: E35-scFv LA51T (scFv, V domains shown)
VH: B1 VH
VL: B1 VL with A51T, P52S
B29: E35-scFv LA51R (scFv, V domains shown)
VH: B1 VH
VL: B1 VL with A51R, P52S
B30: E35-scFv LG50E (scFv, V domains shown)
VH: B1 VH
VL: B1 VL with G50E, P52S
B31: E35-scFv LG50S (scFv, V domains shown)
VH: B1 VH
VL: B1 VL with G50S, P52S
B32: E35-scFv LA51F (scFv, V domains shown)
VH: B1 VH
VL: B1 VL with A51F, P52S
B33: E35-scFv LG50L (scFv, V domains shown)
VH: B1 VH
VL: B1 VL with G50L, P52S
B34: E35-scFv LA51C (scFv, V domains shown)
VH: B1 VH
VL: B1 VL with A51C, P52S
B35: E35-scFv LG50P (scFv, V domains shown)
VH: B1 VH
VL: B1 VL with G50P, P52S
B36: E35-scFv LG50R (scFv, V domains shown)
VH: B1 VH
VL: B1 VL with G50R, P52S
B37: E35-scFv LA51L (scFv, V domains shown)
VH: B1 VH
VL: B1 VL with A51L, P52S
B38: E35-scFv LA51N (scFv, V domains shown)
VH: B1 VH
VL: B1 VL with A51N, P52S
B39: E35-scFv LD92T (scFv, V domains shown)
VH: B1 VH
VL: B1 VL with P52S, D92T
B40: E35-scFv LA51G (scFv, V domains shown)
VH: B1 VH
VL: B1 VL with A51G, P52S
B41: E35-scFv LA51W (scFv, V domains shown)
VH: B1 VH
VL: B1 VL with A51W, P52S

Where a chain is given by its changes, count along the chain named.

The test addresses T1, human GM-CSFRα, full length on cells. The experiment in a line: cell-based or functional assay.
B1: the “IC50, TF-1 cell proliferation” value stood at 1.05 µg/mL. For the molecule B2, the “IC50, TF-1 cell proliferation” value came out at 0.93 µg/mL. Consider B3, for which the “IC50, TF-1 cell proliferation” value was determined as 0.88 µg/mL.

For B4, the “IC50, TF-1 cell proliferation” value worked out at 0.282 µg/mL. B5: the “IC50, TF-1 cell proliferation” value came out at 0.328 µg/mL. With B6 the figure was 0.168 µg/mL; with B7, 0.5 µg/mL. On to B8, for which the “IC50, TF-1 cell proliferation” value worked out at 1.75 µg/mL. On to B9, for which the “IC50, TF-1 cell proliferation” value stood at 0.42 µg/mL.

Consider B10, for which the “IC50, TF-1 cell proliferation” value came to 32 µg/mL. For the molecule B11, the “IC50, TF-1 cell proliferation” value is 0.36 µg/mL. With B12, the “IC50, TF-1 cell proliferation” value stood at 1.59 µg/mL. For the molecule B13, the “IC50, TF-1 cell proliferation” value was found to be 18.2 µg/mL. As for B14, the figure is 0.25 µg/mL; as for B15, 0.162 µg/mL. On to B16, for which the “IC50, TF-1 cell proliferation” value was 0.342 µg/mL. Regarding B17, the “IC50, TF-1 cell proliferation” value is 0.387 µg/mL. For the molecule B18, the “IC50, TF-1 cell proliferation” value was 4.29 µg/mL.

With B19, the “IC50, TF-1 cell proliferation” value is 1.08 µg/mL. As for B20, the figure is 0.507 µg/mL; as for B21, 0.81 µg/mL. With B22 the figure was 2.1 µg/mL; with B23, 0.495 µg/mL; with B24, 0.264 µg/mL.

With B25, the “IC50, TF-1 cell proliferation” value worked out at 25.7 µg/mL.

Regarding B26, the “IC50, TF-1 cell proliferation” value was found to be 1.4 µg/mL. As for B27, the figure is 0.18 µg/mL; as for B28, 0.18 µg/mL. With B29, the “IC50, TF-1 cell proliferation” value came out at 0.12 µg/mL. Regarding B30, the “IC50, TF-1 cell proliferation” value came out at 29.9 µg/mL. B31: the “IC50, TF-1 cell proliferation” value was found to be 1.3 µg/mL. As for B32, the figure is 0.294 µg/mL. As for B33, the figure is 3.9 µg/mL; as for B34, 0.37 µg/mL.

For B35, the “IC50, TF-1 cell proliferation” value was determined as 1.86 µg/mL. In the case of B36, the “IC50, TF-1 cell proliferation” value worked out at 2.79 µg/mL.

With B37, the “IC50, TF-1 cell proliferation” value was 0.5 µg/mL. As for B38, the “IC50, TF-1 cell proliferation” value was found to be 0.36 µg/mL.

Regarding B39, the “IC50, TF-1 cell proliferation” value was 0.494 µg/mL. As to B40, the “IC50, TF-1 cell proliferation” value turned out to be 0.12 µg/mL. Regarding B41, the “IC50, TF-1 cell proliferation” value was 1.59 µg/mL.
